According to patent US20180194839A1 (Novartis, published 2018):

T1: recombinant mouse IL-23 (R&D Systems Cat#1887-ML) (mouse, UniProt Q9EQ14 22-196; P43432 23-335)
T1 construct: also called mIL-23
T1 sequence (looked up) 1: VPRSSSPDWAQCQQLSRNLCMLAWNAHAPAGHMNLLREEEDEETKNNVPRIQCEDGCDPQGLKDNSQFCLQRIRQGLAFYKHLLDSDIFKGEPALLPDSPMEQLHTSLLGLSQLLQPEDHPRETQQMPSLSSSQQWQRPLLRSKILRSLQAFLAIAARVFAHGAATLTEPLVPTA
T1 sequence (looked up) 2: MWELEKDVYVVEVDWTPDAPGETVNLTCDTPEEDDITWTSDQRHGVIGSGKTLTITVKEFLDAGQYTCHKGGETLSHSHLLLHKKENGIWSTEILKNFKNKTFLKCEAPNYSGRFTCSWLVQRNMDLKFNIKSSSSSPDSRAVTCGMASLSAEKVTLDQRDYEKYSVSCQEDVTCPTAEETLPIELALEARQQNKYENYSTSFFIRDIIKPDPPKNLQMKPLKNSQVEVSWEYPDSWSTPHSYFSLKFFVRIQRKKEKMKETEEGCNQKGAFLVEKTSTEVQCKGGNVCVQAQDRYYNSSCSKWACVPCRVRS

T2: recombinant mouse TNFα (R&D Systems Cat#410-MT) (mouse, UniProt P06804 80-235)
T2 construct: coated at 0.5 µg/ml; also called mTNFα
T2 sequence (looked up): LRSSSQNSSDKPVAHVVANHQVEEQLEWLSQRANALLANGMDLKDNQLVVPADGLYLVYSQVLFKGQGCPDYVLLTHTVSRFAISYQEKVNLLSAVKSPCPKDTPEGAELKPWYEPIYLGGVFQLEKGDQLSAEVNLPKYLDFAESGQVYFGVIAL

T3: recombinant mouse IFN-γ (R&D Systems Cat#485-MT) (mouse, UniProt P01580 23-155)
T3 construct: also called mIFN-γ
T3 sequence (looked up): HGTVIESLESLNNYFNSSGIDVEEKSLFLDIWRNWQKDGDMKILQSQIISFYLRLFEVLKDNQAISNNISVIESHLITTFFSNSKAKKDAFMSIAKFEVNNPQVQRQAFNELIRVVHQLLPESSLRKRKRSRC

T4: recombinant mouse IL-18 (MBL Cat#B004-5) (mouse, UniProt P70380 36-192)
T4 construct: also called mIL-18
T4 sequence (looked up): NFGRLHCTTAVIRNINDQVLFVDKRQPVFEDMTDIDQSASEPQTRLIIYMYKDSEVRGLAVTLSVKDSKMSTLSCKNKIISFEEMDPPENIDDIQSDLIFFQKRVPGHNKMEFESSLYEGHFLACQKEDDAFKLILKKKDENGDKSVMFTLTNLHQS

T5: recombinant mouse IL-1β (R&D Systems Cat#401-ML) (mouse, UniProt P10749 118-269)
T5 construct: also called mIL-1β
T5 sequence (looked up): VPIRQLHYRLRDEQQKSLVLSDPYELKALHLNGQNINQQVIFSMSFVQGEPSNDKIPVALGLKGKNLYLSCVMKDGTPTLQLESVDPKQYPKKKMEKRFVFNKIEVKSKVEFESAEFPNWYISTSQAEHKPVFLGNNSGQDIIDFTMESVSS

T6: recombinant mouse IL-17A (SEQ ID NO: 83) (mouse, UniProt Q62386 26-158)
T6 construct: also called mIL-17A; rmIL-17A
T6 sequence: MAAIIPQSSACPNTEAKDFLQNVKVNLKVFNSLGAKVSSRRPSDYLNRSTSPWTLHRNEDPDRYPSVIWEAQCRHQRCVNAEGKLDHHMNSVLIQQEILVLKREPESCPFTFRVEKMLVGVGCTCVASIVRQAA

T7: recombinant mouse IL-2 (R&D Systems 402-ML-020/CF) (mouse, UniProt P04351 21-169)
T7 construct: also called mIL-2
T7 sequence (looked up): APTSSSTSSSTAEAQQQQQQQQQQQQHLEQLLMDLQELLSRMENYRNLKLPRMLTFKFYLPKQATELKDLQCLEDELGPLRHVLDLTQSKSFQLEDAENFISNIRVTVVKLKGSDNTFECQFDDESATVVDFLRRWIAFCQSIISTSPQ

T8: recombinant mouse IL-17A/F (R&D Systems Cat#5390-IL) (mouse, UniProt Q62386 26-158; Q7TNI7 29-161, limits assumed)
T8 construct: bought heterodimer; also called mIL-17A/F; rmIL-17A/F
T8 sequence (looked up) 1: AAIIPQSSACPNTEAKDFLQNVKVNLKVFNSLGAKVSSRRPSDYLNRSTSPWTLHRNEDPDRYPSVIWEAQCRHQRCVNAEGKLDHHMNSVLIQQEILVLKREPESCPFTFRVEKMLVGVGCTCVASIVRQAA
T8 sequence (looked up) 2: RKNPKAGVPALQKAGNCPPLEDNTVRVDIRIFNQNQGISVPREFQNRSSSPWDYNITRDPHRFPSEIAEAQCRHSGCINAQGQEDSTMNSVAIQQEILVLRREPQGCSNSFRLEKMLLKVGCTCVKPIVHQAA

T9: recombinant mouse IL-12 (R&D Systems Cat#419-ML-010/CF) (mouse, UniProt P43431 23-215; P43432 23-335)
T9 construct: coated at 0.5 µg/ml; also called mIL-12
T9 sequence (looked up) 1: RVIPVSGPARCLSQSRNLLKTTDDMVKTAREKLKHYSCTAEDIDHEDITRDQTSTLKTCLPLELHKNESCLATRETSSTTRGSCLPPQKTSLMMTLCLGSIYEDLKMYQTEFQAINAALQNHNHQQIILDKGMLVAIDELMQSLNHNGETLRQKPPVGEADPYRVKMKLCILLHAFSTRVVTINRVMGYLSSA
T9 sequence (looked up) 2: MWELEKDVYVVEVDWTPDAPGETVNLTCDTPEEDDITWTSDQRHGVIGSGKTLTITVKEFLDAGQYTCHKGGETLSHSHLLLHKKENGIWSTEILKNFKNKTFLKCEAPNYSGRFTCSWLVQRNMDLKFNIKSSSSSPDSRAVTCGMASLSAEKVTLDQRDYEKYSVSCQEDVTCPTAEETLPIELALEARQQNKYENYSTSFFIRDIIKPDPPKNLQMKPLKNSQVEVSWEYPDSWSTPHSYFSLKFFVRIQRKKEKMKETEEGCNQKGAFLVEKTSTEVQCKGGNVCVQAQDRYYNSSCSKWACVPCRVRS

T10: recombinant mouse IL-17F (R&D Systems Cat#2057-IL/CF) (mouse, UniProt Q7TNI7 29-161)
T10 construct: also called mIL-17F
T10 sequence (looked up): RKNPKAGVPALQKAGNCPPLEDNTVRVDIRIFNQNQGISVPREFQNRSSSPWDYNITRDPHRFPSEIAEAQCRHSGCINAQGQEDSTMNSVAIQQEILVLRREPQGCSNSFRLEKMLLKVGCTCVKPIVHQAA

B1: XAB4 (antibody, human IgG1, kappa, V domains shown)
VH: EVQLVESGGDLVQPGGSLRLSCAASGFTFSSYWMSWVRQAPGKGLEWVANIKQDGSEKYYVDSVKGRFTISRDNAKNSLYLQMNSLRAEDTAVYYCARDRGSLYYWGQGTLVTVSS
VL: AIQLTQSPSSLSASVGDRVTITCRPSQGINWELAWYQQKPGKAPKLLIYDASSLEQGVPSRFSGSGSGTDFTLTISSLQPEDFATYYCQQFNSYPLTFGGGTKVEIKR
notes: also called MB435 N56Q
B2: XAB1 (antibody, human IgG1, kappa, V domains shown)
VH: EVQLVESGGDLVQPGGSLRLSCAASGFTFSSYWMSWVRQAPGKGLEWVANIKQDGSEKYYVDSVKGRFTISRDNAKNSLYLQMNSLRAEDTAVYYCARDRGSLYYWGQGTLVTVSS
VL: AIQLTQSPSSLSASVGDRVTITCRPSQGIISALAWYQQKPGKAPKLLIYDASSLENGVPSRFSGSGSGTDFTLTISSLQPEDFATYYCQQFNSYPLTFGGGTKVEIKR
notes: human IgG1/kappa monoclonal antibody; also called parental XAB1; XAB1 IgG

Legend:
Assay in all cases: ELISA, coated cytokine, Ab 10 µg/ml
[1] = molecular target: T1, recombinant mouse IL-23 (R&D Systems …)
Procedure: (§1) The antibodies of the disclosure were added at 10 μg/ml (100 μl/well) for 3 h at room temperature. […] They were added at 1 or 5 μg/ml, in PBS, 0.02% NaN₃ for 3 h at RT.
(§2) Plates were then washed 4 times with PBS/0.05% Tween 20/0.02% NaN₃. Then, an alkaline phosphatase-conjugated goat anti-human IgG antibody (Sigma Cat# A9544) was added to the wells with human antibodies at a dilution of 1/20000 (100 μl/well). An alkaline phosphatase-conjugated goat anti-mouse IgG antibody (Sigma Cat# A1047) was added to the wells with mouse antibodies at a dilution of 1/10000 (100 μl/well). An alkaline phosphatase-conjugated rabbit anti-goat IgG antibody (Sigma Cat# A7650) was added to the wells with goat antibodies at a dilution of 1/1000 (100 μl/well) and an alkaline phosphatase-conjugated rabbit anti rat-IgG antibody (Sigma Cat# A6066) was added to the wells with rat antibodies at a dilution of 1/20000 (100 μl/well).

[2] = molecular target: T2, recombinant mouse TNFα (R&D Systems …)
Procedure: as §1, §2

[3] = molecular target: T3, recombinant mouse IFN-γ (R&D Systems …)
Procedure: as §1, §2

[4] = molecular target: T4, recombinant mouse IL-18 (MBL Cat#B004-5)
Procedure: as §1, §2

[5] = molecular target: T5, recombinant mouse IL-1β (R&D Systems …)
Procedure: as §1, §2

[6] = molecular target: T6, recombinant mouse IL-17A (SEQ ID NO: 83)
Procedure: as §1, §2

[7] = molecular target: T7, recombinant mouse IL-2 (R&D Systems …)
Procedure: as §1, §2

[8] = molecular target: T8, recombinant mouse IL-17A/F (R&D Systems …)
Procedure: as §1, §2

[9] = molecular target: T9, recombinant mouse IL-12 (R&D Systems …)
Procedure: as §1, §2

[10] = molecular target: T10, recombinant mouse IL-17F (R&D Systems …)
Procedure: as §1, §2

| Binder | O.D. [1] | O.D. [2] | O.D. [3] | O.D. [4] | O.D. [5] | O.D. [6] | O.D. [7] | O.D. [8] | O.D. [9] | O.D. [10] |
| --- | --- | --- | --- | --- | --- | --- | --- | --- | --- | --- |
| B1 | 0.058 O.D. | 0.065 O.D. | 0.038 O.D. | 0.054 O.D. | 0.022 O.D. | 3.29 O.D. | 0.024 O.D. | 3.34 O.D. | 0.035 O.D. | 0.034 O.D. |
| B2 | 0.009 O.D. | 0.025 O.D. | 0.048 O.D. | 0.022 O.D. | 0.007 O.D. | 2.97 O.D. | 0.022 O.D. | 3.17 O.D. | -0.005 O.D. | -0.058 O.D. |
